These results are taken from paper PMC7672080.

In test [1] the target is mCherry-tagged neuroligin-1 (UniProt Q99K10).
Test [2] has the same target. This is another data set of the same source.

Sequence of UniProt Q99K10 (Q99K10 46-843): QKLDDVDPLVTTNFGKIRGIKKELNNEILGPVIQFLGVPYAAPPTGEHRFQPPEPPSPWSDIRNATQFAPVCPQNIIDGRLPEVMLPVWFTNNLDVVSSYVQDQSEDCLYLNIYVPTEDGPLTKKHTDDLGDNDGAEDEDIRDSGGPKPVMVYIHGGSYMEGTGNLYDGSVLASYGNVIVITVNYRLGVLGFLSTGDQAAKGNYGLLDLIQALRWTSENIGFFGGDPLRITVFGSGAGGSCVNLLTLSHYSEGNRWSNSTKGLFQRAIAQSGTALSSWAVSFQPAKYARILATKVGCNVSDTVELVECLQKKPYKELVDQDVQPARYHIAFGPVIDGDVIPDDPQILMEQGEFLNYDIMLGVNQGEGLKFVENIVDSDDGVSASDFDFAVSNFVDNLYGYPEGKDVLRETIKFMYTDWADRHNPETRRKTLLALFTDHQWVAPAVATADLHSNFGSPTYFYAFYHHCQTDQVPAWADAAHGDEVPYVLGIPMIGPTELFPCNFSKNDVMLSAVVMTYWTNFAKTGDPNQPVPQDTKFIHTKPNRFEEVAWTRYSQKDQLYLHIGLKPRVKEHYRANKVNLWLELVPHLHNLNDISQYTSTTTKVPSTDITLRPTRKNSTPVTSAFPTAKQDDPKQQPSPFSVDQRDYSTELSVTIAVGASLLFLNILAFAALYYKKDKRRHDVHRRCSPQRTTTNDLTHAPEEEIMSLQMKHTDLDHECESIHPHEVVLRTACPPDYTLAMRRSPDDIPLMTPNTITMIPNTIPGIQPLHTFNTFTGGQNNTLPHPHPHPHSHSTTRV

With “GFP-tagged neurexin-1β (from UniProt Q63373 47-468) (receptor)”, in test [1], the enrichment of GFP-Nrx1β at cell–cell contacts between co-cultured COS-7 cells expressing GFP-Nrx1β and cells expressing Nlg1-mCherry (fluorescence microscopy) worked out at 3.9. Moreover, the diffusion coefficient of single GFP-Nrx1β molecules inside the contact with a cell expressing Nlg1-mCherry (uPAINT single particle tracking at 50 Hz; Dout = 0.3 µm^2/s outside the contact) in test [2] was 0.04 µm^2/s.
